# Data published in article PMC6193622, “Identification of UHRF2 as a novel DNA interstrand crosslink sensor protein” (PLoS Genetics, 2018).
# B1: Flag-UHRF1 wild type purified from Sf9 cells (natural protein, human, UniProt Q96T88-2 1-806, looked up)
# chain: MGVFAVPPLSSDTMWIQVRTMDGRQTHTVDSLSRLTKVEELRRKIQELFHVEPGLQRLFYRGKQMEDGHTLFDYEVRLNDTIQLLVRQSLVLPHSTKERDSELSDTDSGCCLGQSESDKSSTHGEAAAETDSRPADEDMWDETELGLYKVNEYVDARDTNMGAWFEAQVVRVTRKAPSRDEPCSSTSRPALEEDVIYHVKYDDYPENGVVQMNSRDVRARARTIIKWQDLEVGQVVMLNYNPDNPKERGFWYDAEISRKRETRTARELYANVVLGDDSLNDCRIIFVDEVFKIERPGEGSPMVDNPMRRKSGPSCKHCKDDVNRLCRVCACHLCGGRQDPDKQLMCDECDMAFHIYCLDPPLSSVPSEDEWYCPECRNDASEVVLAGERLRESKKKAKMASATSSSQRDWGKGMACVGRTKECTIVPSNHYGPIPGIPVGTMWRFRVQVSESGVHRPHVAGIHGRSNDGAYSLVLAGGYEDDVDHGNFFTYTGSGGRDLSGNKRTAEQSCDQKLTNTNRALALNCFAPINDQEGAEAKDWRSGKPVRVVRNVKGGKNSKYAPAEGNRYDGIYKVVKYWPEKGKSGFLVWRYLLRRDDDEPGPWTKEGKDRIKKLGLTMQYPEGYLEALANREREKENSKREEEEQQEGGFASPRTGKGKWKRKSAGGGPSRAGSPRRTSKKTKVEPYSLTAQQSSLIREDKSNAKLWNEVLASLKDRPASGSPFQLFLSKVEETFQCICCQELVFRPITTVCQHNVCKDCLDRSFRAQVFSCPACRYDLGRSYAMQVNQPLQTVLNQLFPGYGNGR
# notes: UHRF1, human, wild type; the deletion limits printed for its mutants run to residue 806, so the 806-residue isoform is meant; also called wild type UHRF1; Flag-tagged wild type UHRF1; source: Sf9, purified
# Key:
# [1] = biological target: T1, Flag-HA-FANCD2 purified from Sf9 cells (human, UniProt Q9BXW9 1-1451); test: co-IP; in vitro binding assay: 1μg of each protein with 10μg BSA in 20mM Tris-HCl pH 8.0, 150mM KCl, 10% glycerol, 2mM β-ME, 10μl, 37°C 1h; HA-FANCD2 immunoprecipitated on protein A sepharose with anti-HA IgG at 4°C, washed with 0.1% Tween-20, eluted with HA peptide; immunoblotting; conditions: both partners purified
# T1 construct: FANCD2, human, full-length form; also called Flag-HA-tagged FANCD2; source: Sf9, purified (M2 anti-Flag agarose, Flag peptide elution); not shown: Flag, N-terminal, kept; HA, N-terminal, kept
# T1 sequence (Q9BXW9 whole entry): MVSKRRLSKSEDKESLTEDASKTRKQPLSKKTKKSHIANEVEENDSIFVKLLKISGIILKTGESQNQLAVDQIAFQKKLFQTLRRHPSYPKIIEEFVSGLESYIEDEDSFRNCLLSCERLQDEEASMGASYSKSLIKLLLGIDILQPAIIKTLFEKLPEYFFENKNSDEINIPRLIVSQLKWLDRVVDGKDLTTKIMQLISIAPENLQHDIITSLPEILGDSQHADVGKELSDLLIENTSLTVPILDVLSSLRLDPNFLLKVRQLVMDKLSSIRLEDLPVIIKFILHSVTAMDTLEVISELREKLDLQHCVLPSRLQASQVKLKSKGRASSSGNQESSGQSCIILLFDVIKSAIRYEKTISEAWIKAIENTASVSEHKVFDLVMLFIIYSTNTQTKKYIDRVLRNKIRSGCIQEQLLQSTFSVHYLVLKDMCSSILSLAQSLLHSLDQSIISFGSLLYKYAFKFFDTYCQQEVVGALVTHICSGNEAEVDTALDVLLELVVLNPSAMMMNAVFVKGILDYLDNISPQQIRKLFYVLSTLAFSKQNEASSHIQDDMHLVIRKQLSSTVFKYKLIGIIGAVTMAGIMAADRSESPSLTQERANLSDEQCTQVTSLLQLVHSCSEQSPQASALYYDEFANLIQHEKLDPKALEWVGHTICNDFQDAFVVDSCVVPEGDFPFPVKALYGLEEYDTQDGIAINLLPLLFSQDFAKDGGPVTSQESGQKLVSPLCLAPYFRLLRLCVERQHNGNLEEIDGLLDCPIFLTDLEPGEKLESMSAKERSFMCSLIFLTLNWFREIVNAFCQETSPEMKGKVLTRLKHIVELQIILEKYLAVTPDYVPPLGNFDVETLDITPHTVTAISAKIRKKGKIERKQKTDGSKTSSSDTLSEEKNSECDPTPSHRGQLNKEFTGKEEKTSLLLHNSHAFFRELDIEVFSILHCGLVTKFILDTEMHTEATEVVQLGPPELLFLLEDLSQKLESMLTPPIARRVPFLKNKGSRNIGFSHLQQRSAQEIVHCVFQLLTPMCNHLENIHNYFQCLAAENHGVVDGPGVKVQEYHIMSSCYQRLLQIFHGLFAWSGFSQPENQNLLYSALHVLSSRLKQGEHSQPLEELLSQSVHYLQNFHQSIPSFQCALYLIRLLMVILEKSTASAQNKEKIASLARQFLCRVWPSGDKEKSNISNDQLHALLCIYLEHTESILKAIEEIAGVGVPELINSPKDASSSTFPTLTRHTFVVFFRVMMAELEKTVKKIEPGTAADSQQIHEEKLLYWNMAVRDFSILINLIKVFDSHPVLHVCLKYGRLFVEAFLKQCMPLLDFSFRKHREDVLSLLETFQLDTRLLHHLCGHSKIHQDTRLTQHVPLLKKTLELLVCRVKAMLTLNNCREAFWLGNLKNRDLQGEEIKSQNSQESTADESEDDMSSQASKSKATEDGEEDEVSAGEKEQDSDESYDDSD
# [2] = biological target: B1; test: co-IP; in vitro binding assay of purified recombinant proteins from Sf9 cells; His-UHRF2 was immunoprecipitated, immunoblotting; conditions: both partners purified
binding result [1],binding result [2],Binder
binds,–,"Flag-UHRF1 with the TTD domain deleted (natural protein, human, UniProt Q96T88-2 1-806, looked up, UHRF1, human, amino acids 146-296 (TTD domain) deleted; also called UHRF1 TTD deletion mutant; source: Sf9, purified) MGVFAVPPLSSDTMWIQVRTMDGRQTHTVDSLSRLTKVEELRRKIQELFHVEPGLQRLFYRGKQMEDGHTLFDYEVRLNDTIQLLVRQSLVLPHSTKERDSELSDTDSGCCLGQSESDKSSTHGEAAAETDSRPADEDMWDETELGEGSPMVDNPMRRKSGPSCKHCKDDVNRLCRVCACHLCGGRQDPDKQLMCDECDMAFHIYCLDPPLSSVPSEDEWYCPECRNDASEVVLAGERLRESKKKAKMASATSSSQRDWGKGMACVGRTKECTIVPSNHYGPIPGIPVGTMWRFRVQVSESGVHRPHVAGIHGRSNDGAYSLVLAGGYEDDVDHGNFFTYTGSGGRDLSGNKRTAEQSCDQKLTNTNRALALNCFAPINDQEGAEAKDWRSGKPVRVVRNVKGGKNSKYAPAEGNRYDGIYKVVKYWPEKGKSGFLVWRYLLRRDDDEPGPWTKEGKDRIKKLGLTMQYPEGYLEALANREREKENSKREEEEQQEGGFASPRTGKGKWKRKSAGGGPSRAGSPRRTSKKTKVEPYSLTAQQSSLIREDKSNAKLWNEVLASLKDRPASGSPFQLFLSKVEETFQCICCQELVFRPITTVCQHNVCKDCLDRSFRAQVFSCPACRYDLGRSYAMQVNQPLQTVLNQLFPGYGNGR"
binds,–,"Flag-UHRF1 with the UBL domain deleted (natural protein, human, UniProt Q96T88-2 1-806, looked up, UHRF1, human, amino acids 14-91 (UBL domain) deleted; also called UHRF1 UBL deletion mutant; source: Sf9, purified) MGVFAVPPLSSDTLPHSTKERDSELSDTDSGCCLGQSESDKSSTHGEAAAETDSRPADEDMWDETELGLYKVNEYVDARDTNMGAWFEAQVVRVTRKAPSRDEPCSSTSRPALEEDVIYHVKYDDYPENGVVQMNSRDVRARARTIIKWQDLEVGQVVMLNYNPDNPKERGFWYDAEISRKRETRTARELYANVVLGDDSLNDCRIIFVDEVFKIERPGEGSPMVDNPMRRKSGPSCKHCKDDVNRLCRVCACHLCGGRQDPDKQLMCDECDMAFHIYCLDPPLSSVPSEDEWYCPECRNDASEVVLAGERLRESKKKAKMASATSSSQRDWGKGMACVGRTKECTIVPSNHYGPIPGIPVGTMWRFRVQVSESGVHRPHVAGIHGRSNDGAYSLVLAGGYEDDVDHGNFFTYTGSGGRDLSGNKRTAEQSCDQKLTNTNRALALNCFAPINDQEGAEAKDWRSGKPVRVVRNVKGGKNSKYAPAEGNRYDGIYKVVKYWPEKGKSGFLVWRYLLRRDDDEPGPWTKEGKDRIKKLGLTMQYPEGYLEALANREREKENSKREEEEQQEGGFASPRTGKGKWKRKSAGGGPSRAGSPRRTSKKTKVEPYSLTAQQSSLIREDKSNAKLWNEVLASLKDRPASGSPFQLFLSKVEETFQCICCQELVFRPITTVCQHNVCKDCLDRSFRAQVFSCPACRYDLGRSYAMQVNQPLQTVLNQLFPGYGNGR"
binds,–,"Flag-UHRF1 with the RING domain deleted (natural protein, human, UniProt Q96T88-2 1-806, looked up, UHRF1, human, amino acids 727-806 (RING domain) deleted; also called UHRF1 RING deletion mutant; source: Sf9, purified) MGVFAVPPLSSDTMWIQVRTMDGRQTHTVDSLSRLTKVEELRRKIQELFHVEPGLQRLFYRGKQMEDGHTLFDYEVRLNDTIQLLVRQSLVLPHSTKERDSELSDTDSGCCLGQSESDKSSTHGEAAAETDSRPADEDMWDETELGLYKVNEYVDARDTNMGAWFEAQVVRVTRKAPSRDEPCSSTSRPALEEDVIYHVKYDDYPENGVVQMNSRDVRARARTIIKWQDLEVGQVVMLNYNPDNPKERGFWYDAEISRKRETRTARELYANVVLGDDSLNDCRIIFVDEVFKIERPGEGSPMVDNPMRRKSGPSCKHCKDDVNRLCRVCACHLCGGRQDPDKQLMCDECDMAFHIYCLDPPLSSVPSEDEWYCPECRNDASEVVLAGERLRESKKKAKMASATSSSQRDWGKGMACVGRTKECTIVPSNHYGPIPGIPVGTMWRFRVQVSESGVHRPHVAGIHGRSNDGAYSLVLAGGYEDDVDHGNFFTYTGSGGRDLSGNKRTAEQSCDQKLTNTNRALALNCFAPINDQEGAEAKDWRSGKPVRVVRNVKGGKNSKYAPAEGNRYDGIYKVVKYWPEKGKSGFLVWRYLLRRDDDEPGPWTKEGKDRIKKLGLTMQYPEGYLEALANREREKENSKREEEEQQEGGFASPRTGKGKWKRKSAGGGPSRAGSPRRTSKKTKVEPYSLTAQQSSLIREDKSNAKLWNEVLASLKDRPASGSPFQL"
binds,–,"Flag-UHRF1 with the PHD domain deleted (natural protein, human, UniProt Q96T88-2 1-806, looked up, UHRF1, human, amino acids 323-379 (PHD domain) deleted; also called UHRF1 PHD deletion mutant; source: Sf9, purified) MGVFAVPPLSSDTMWIQVRTMDGRQTHTVDSLSRLTKVEELRRKIQELFHVEPGLQRLFYRGKQMEDGHTLFDYEVRLNDTIQLLVRQSLVLPHSTKERDSELSDTDSGCCLGQSESDKSSTHGEAAAETDSRPADEDMWDETELGLYKVNEYVDARDTNMGAWFEAQVVRVTRKAPSRDEPCSSTSRPALEEDVIYHVKYDDYPENGVVQMNSRDVRARARTIIKWQDLEVGQVVMLNYNPDNPKERGFWYDAEISRKRETRTARELYANVVLGDDSLNDCRIIFVDEVFKIERPGEGSPMVDNPMRRKSGPSCKHCKDDVASEVVLAGERLRESKKKAKMASATSSSQRDWGKGMACVGRTKECTIVPSNHYGPIPGIPVGTMWRFRVQVSESGVHRPHVAGIHGRSNDGAYSLVLAGGYEDDVDHGNFFTYTGSGGRDLSGNKRTAEQSCDQKLTNTNRALALNCFAPINDQEGAEAKDWRSGKPVRVVRNVKGGKNSKYAPAEGNRYDGIYKVVKYWPEKGKSGFLVWRYLLRRDDDEPGPWTKEGKDRIKKLGLTMQYPEGYLEALANREREKENSKREEEEQQEGGFASPRTGKGKWKRKSAGGGPSRAGSPRRTSKKTKVEPYSLTAQQSSLIREDKSNAKLWNEVLASLKDRPASGSPFQLFLSKVEETFQCICCQELVFRPITTVCQHNVCKDCLDRSFRAQVFSCPACRYDLGRSYAMQVNQPLQTVLNQLFPGYGNGR"
binds,binds,"6xHis-UHRF2 purified from Sf9 cells (natural protein, human, UniProt Q96PU4 1-802, looked up, UHRF2, human; also called 6xHis-tagged UHRF2; source: Sf9, purified) MWIQVRTIDGSKTCTIEDVSRKATIEELRERVWALFDVRPECQRLFYRGKQLENGYTLFDYDVGLNDIIQLLVRPDPDHLPGTSTQIEAKPCSNSPPKVKKAPRVGPSNQPSTSARARLIDPGFGIYKVNELVDARDVGLGAWFEAHIHSVTRASDGQSRGKTPLKNGSSCKRTNGNIKHKSKENTNKLDSVPSTSNSDCVAADEDVIYHIQYDEYPESGTLEMNVKDLRPRARTILKWNELNVGDVVMVNYNVESPGQRGFWFDAEITTLKTISRTKKELRVKIFLGGSEGTLNDCKIISVDEIFKIERPGAHPLSFADGKFLRRNDPECDLCGGDPEKKCHSCSCRVCGGKHEPNMQLLCDECNVAYHIYCLNPPLDKVPEEEYWYCPSCKTDSSEVVKAGERLKMSKKKAKMPSASTESRRDWGRGMACVGRTRECTIVPSNHYGPIPGIPVGSTWRFRVQVSEAGVHRPHVGGIHGRSNDGAYSLVLAGGFADEVDRGDEFTYTGSGGKNLAGNKRIGAPSADQTLTNMNRALALNCDAPLDDKIGAESRNWRAGKPVRVIRSFKGRKISKYAPEEGNRYDGIYKVVKYWPEISSSHGFLVWRYLLRRDDVEPAPWTSEGIERSRRLCLRLQYPAGYPSDKEGKKPKGQSKKQPSGTTKRPISDDDCPSASKVYKASDSAEAIEAFQLTPQQQHLIREDCQNQKLWDEVLSHLVEGPNFLKKLEQSFMCVCCQELVYQPVTTECFHNVCKDCLQRSFKAQVFSCPACRHDLGQNYIMIPNEILQTLLDLFFPGYSKGR"
binds,–,B1
